For the test, the target named is T1, HER2 (human epidermal growth factor receptor 2) (human, UniProt P04626 23-629).
T1 construct: also called Antigen: HER2
Kind of test: SPR.

Experimental findings from patent US20250218531A1 (ABSCI, published 2025) are described below.

The term Kd denotes a measure of binding affinity in units of concentration. The low end stands for higher affinity, the high end for lower affinity.

B1: Trastuzumab HCDR3 variant ARWGGYYYYFDY (Fab, V domains shown)
VH: EVQLVESGGGLVQPGGSLRLSCAASGFNIKDTYIHWVRQAPGKGLEWVARIYPTNGYTRYADSVKGRFTISADTSKNTAYLQMNSLRAEDTAVYYCARWGGYYYYFDYWGQGTLVTVSS
VL: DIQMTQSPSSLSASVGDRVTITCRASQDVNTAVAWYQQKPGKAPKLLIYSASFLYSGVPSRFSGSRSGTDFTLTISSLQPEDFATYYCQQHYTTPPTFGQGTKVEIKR
As to B1, the Kd was found to be 12.8 nM and the “log(KD (M))” value is -7.89.

B2: Trastuzumab HCDR3 variant ARWGNYYYYMDY (Fab, V domains shown)
VH: EVQLVESGGGLVQPGGSLRLSCAASGFNIKDTYIHWVRQAPGKGLEWVARIYPTNGYTRYADSVKGRFTISADTSKNTAYLQMNSLRAEDTAVYYCARWGNYYYYMDYWGQGTLVTVSS
VL: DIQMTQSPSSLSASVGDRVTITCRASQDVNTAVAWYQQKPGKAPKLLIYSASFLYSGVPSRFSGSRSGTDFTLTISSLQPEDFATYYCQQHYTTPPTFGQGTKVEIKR
B2: the affinity, expressed as Kd, was 1.69 nM and the “log(KD (M))” value is -8.77.

B3: Trastuzumab HCDR3 variant ARWGYYYYYMDY (Fab, V domains shown)
VH: EVQLVESGGGLVQPGGSLRLSCAASGFNIKDTYIHWVRQAPGKGLEWVARIYPTNGYTRYADSVKGRFTISADTSKNTAYLQMNSLRAEDTAVYYCARWGYYYYYMDYWGQGTLVTVSS
VL: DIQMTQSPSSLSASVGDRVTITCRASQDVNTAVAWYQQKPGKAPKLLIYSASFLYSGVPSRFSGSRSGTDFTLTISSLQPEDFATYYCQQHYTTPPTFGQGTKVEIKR
As to B3, the affinity, expressed as Kd, was 2.28 nM and the “log(KD (M))” value was -8.64.

B4: Trastuzumab HCDR3 variant ARYGLGYYYFDY (Fab, V domains shown)
VH: EVQLVESGGGLVQPGGSLRLSCAASGFNIKDTYIHWVRQAPGKGLEWVARIYPTNGYTRYADSVKGRFTISADTSKNTAYLQMNSLRAEDTAVYYCARYGLGYYYFDYWGQGTLVTVSS
VL: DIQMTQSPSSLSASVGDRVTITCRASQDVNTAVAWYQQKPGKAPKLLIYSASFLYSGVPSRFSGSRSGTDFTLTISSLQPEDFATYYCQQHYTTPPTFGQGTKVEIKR
With B4, binding was characterised by a dissociation constant (Kd) of 15.7 nM and the “log(KD (M))” value was -7.8.

B5: Trastuzumab HCDR3 variant ARYGLGYYYMDY (Fab, V domains shown)
VH: EVQLVESGGGLVQPGGSLRLSCAASGFNIKDTYIHWVRQAPGKGLEWVARIYPTNGYTRYADSVKGRFTISADTSKNTAYLQMNSLRAEDTAVYYCARYGLGYYYMDYWGQGTLVTVSS
VL: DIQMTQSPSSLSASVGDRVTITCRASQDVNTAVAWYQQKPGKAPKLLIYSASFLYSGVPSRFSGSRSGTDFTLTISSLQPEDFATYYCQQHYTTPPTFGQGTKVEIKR
As for B5, binding was put at a Kd of 10.5 nM and the “log(KD (M))” value is -7.98.

B6: Trastuzumab HCDR3 variant ARWYYDYYYMDY (Fab, V domains shown)
VH: EVQLVESGGGLVQPGGSLRLSCAASGFNIKDTYIHWVRQAPGKGLEWVARIYPTNGYTRYADSVKGRFTISADTSKNTAYLQMNSLRAEDTAVYYCARWYYDYYYMDYWGQGTLVTVSS
VL: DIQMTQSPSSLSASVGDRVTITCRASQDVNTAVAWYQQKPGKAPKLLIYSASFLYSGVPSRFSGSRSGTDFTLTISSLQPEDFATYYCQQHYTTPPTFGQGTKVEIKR
Regarding B6, the Kd amounted to 13.9 nM and the “log(KD (M))” value was -7.86.

B7: Trastuzumab HCDR3 variant ARWYGGYYHHDY (Fab, V domains shown)
VH: EVQLVESGGGLVQPGGSLRLSCAASGFNIKDTYIHWVRQAPGKGLEWVARIYPTNGYTRYADSVKGRFTISADTSKNTAYLQMNSLRAEDTAVYYCARWYGGYYHHDYWGQGTLVTVSS
VL: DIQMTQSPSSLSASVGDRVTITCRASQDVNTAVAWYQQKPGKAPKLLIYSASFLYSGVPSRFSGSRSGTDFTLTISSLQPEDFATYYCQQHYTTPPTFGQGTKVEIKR
On to B7, for which the dissociation constant Kd was determined as 8.57 nM and the “log(KD (M))” value was -8.07.

B8: Trastuzumab HCDR3 variant ARYGAYFYAMDA (Fab, V domains shown)
VH: EVQLVESGGGLVQPGGSLRLSCAASGFNIKDTYIHWVRQAPGKGLEWVARIYPTNGYTRYADSVKGRFTISADTSKNTAYLQMNSLRAEDTAVYYCARYGAYFYAMDAWGQGTLVTVSS
VL: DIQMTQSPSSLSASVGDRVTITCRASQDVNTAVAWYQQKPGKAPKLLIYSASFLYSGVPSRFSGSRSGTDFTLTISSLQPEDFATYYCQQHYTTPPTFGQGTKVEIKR
Consider B8, for which the affinity, expressed as Kd, was 18.6 nM and the “log(KD (M))” value is -7.73.

B9: Trastuzumab HCDR3 variant ARYGGYYYYMDY (Fab, V domains shown)
VH: EVQLVESGGGLVQPGGSLRLSCAASGFNIKDTYIHWVRQAPGKGLEWVARIYPTNGYTRYADSVKGRFTISADTSKNTAYLQMNSLRAEDTAVYYCARYGGYYYYMDYWGQGTLVTVSS
VL: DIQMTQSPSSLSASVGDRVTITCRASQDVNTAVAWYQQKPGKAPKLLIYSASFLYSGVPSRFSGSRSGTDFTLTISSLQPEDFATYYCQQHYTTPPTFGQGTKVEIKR
As for B9, the Kd turned out to be 16.3 nM and the “log(KD (M))” value is -7.79.

B10: Trastuzumab HCDR3 variant ARWQGGYYYWDF (Fab, V domains shown)
VH: EVQLVESGGGLVQPGGSLRLSCAASGFNIKDTYIHWVRQAPGKGLEWVARIYPTNGYTRYADSVKGRFTISADTSKNTAYLQMNSLRAEDTAVYYCARWQGGYYYWDFWGQGTLVTVSS
VL: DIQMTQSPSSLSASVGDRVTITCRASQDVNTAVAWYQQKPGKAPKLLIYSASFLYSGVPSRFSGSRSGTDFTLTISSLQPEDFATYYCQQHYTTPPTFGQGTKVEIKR
Consider B10, for which the dissociation constant (Kd) was determined as 13.8 nM and the “log(KD (M))” value is -7.86.

B11: Trastuzumab HCDR3 variant ARWYGGYYMYDY (Fab, V domains shown)
VH: EVQLVESGGGLVQPGGSLRLSCAASGFNIKDTYIHWVRQAPGKGLEWVARIYPTNGYTRYADSVKGRFTISADTSKNTAYLQMNSLRAEDTAVYYCARWYGGYYMYDYWGQGTLVTVSS
VL: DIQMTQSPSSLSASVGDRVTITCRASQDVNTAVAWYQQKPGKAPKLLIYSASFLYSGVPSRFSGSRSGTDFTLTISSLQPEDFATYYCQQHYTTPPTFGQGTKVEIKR
In the case of B11, the Kd was found to be 19.1 nM and the “log(KD (M))” value is -7.72.

B12: Trastuzumab HCDR3 variant ARWGSGYYYMDY (Fab, V domains shown)
VH: EVQLVESGGGLVQPGGSLRLSCAASGFNIKDTYIHWVRQAPGKGLEWVARIYPTNGYTRYADSVKGRFTISADTSKNTAYLQMNSLRAEDTAVYYCARWGSGYYYMDYWGQGTLVTVSS
VL: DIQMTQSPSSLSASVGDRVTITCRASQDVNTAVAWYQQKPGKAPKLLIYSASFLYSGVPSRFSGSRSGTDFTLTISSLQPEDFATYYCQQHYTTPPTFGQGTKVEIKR
Consider B12, for which the dissociation constant (Kd) is 4.46 nM and the “log(KD (M))” value was -8.35.

B13: Trastuzumab HCDR3 variant ARYGGGFYAMDY (Fab, V domains shown)
VH: EVQLVESGGGLVQPGGSLRLSCAASGFNIKDTYIHWVRQAPGKGLEWVARIYPTNGYTRYADSVKGRFTISADTSKNTAYLQMNSLRAEDTAVYYCARYGGGFYAMDYWGQGTLVTVSS
VL: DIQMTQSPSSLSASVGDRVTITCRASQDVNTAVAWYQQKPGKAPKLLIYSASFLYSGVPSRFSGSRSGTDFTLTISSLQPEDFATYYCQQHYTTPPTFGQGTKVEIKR
Take B13: binding was put at a Kd of 22.4 nM and the “log(KD (M))” value was -7.65.

B14: Trastuzumab HCDR3 variant ARYGGGYWYFDY (Fab, V domains shown)
VH: EVQLVESGGGLVQPGGSLRLSCAASGFNIKDTYIHWVRQAPGKGLEWVARIYPTNGYTRYADSVKGRFTISADTSKNTAYLQMNSLRAEDTAVYYCARYGGGYWYFDYWGQGTLVTVSS
VL: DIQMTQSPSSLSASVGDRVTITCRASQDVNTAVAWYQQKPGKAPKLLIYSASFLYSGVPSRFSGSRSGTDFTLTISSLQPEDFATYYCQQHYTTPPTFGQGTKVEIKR
Regarding B14, binding was put at a Kd of 23.4 nM and the “log(KD (M))” value was -7.63.

B15: Trastuzumab HCDR3 variant ARWGYDYYYFAY (Fab, V domains shown)
VH: EVQLVESGGGLVQPGGSLRLSCAASGFNIKDTYIHWVRQAPGKGLEWVARIYPTNGYTRYADSVKGRFTISADTSKNTAYLQMNSLRAEDTAVYYCARWGYDYYYFAYWGQGTLVTVSS
VL: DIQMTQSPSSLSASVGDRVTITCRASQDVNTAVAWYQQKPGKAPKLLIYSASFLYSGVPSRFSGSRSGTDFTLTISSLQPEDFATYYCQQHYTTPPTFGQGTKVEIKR
Take B15: the dissociation constant (Kd) was 26.5 nM and the “log(KD (M))” value was -7.58.

B16: Trastuzumab HCDR3 variant ARYDYGYYIYVS (Fab, V domains shown)
VH: EVQLVESGGGLVQPGGSLRLSCAASGFNIKDTYIHWVRQAPGKGLEWVARIYPTNGYTRYADSVKGRFTISADTSKNTAYLQMNSLRAEDTAVYYCARYDYGYYIYVSWGQGTLVTVSS
VL: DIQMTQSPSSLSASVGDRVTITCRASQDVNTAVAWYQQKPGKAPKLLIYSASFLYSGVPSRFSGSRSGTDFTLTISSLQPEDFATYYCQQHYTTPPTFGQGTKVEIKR
As for B16, the Kd worked out at 9.49 nM and the “log(KD (M))” value was -8.02.

B17: Trastuzumab HCDR3 variant ARWGYGYYYFDY (Fab, V domains shown)
VH: EVQLVESGGGLVQPGGSLRLSCAASGFNIKDTYIHWVRQAPGKGLEWVARIYPTNGYTRYADSVKGRFTISADTSKNTAYLQMNSLRAEDTAVYYCARWGYGYYYFDYWGQGTLVTVSS
VL: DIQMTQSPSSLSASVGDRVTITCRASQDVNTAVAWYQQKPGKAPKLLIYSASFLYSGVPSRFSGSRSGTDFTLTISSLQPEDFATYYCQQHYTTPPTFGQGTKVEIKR
With B17, the Kd turned out to be 25.2 nM and the “log(KD (M))” value is -7.6.

B18: Trastuzumab HCDR3 variant ARWPGGYYHMDY (Fab, V domains shown)
VH: EVQLVESGGGLVQPGGSLRLSCAASGFNIKDTYIHWVRQAPGKGLEWVARIYPTNGYTRYADSVKGRFTISADTSKNTAYLQMNSLRAEDTAVYYCARWPGGYYHMDYWGQGTLVTVSS
VL: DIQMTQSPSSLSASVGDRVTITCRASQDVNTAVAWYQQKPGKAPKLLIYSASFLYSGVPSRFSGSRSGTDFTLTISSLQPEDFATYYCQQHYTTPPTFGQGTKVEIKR
Consider B18, for which the affinity, expressed as Kd, was 8.49 nM and the “log(KD (M))” value is -8.07.

B19: Trastuzumab HCDR3 variant ARYDIGYYDMDK (Fab, V domains shown)
VH: EVQLVESGGGLVQPGGSLRLSCAASGFNIKDTYIHWVRQAPGKGLEWVARIYPTNGYTRYADSVKGRFTISADTSKNTAYLQMNSLRAEDTAVYYCARYDIGYYDMDKWGQGTLVTVSS
VL: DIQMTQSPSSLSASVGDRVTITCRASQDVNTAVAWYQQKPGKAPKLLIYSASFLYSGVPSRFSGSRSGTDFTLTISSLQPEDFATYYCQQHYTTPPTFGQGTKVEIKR
On to B19, for which the Kd was 27 nM and the “log(KD (M))” value is -7.57.

B20: Trastuzumab HCDR3 variant ARWGGYYYYMDY (Fab, V domains shown)
VH: EVQLVESGGGLVQPGGSLRLSCAASGFNIKDTYIHWVRQAPGKGLEWVARIYPTNGYTRYADSVKGRFTISADTSKNTAYLQMNSLRAEDTAVYYCARWGGYYYYMDYWGQGTLVTVSS
VL: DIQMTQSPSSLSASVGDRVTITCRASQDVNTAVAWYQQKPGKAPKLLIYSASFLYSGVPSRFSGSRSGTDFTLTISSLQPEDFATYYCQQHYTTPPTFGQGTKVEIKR
In the case of B20, the affinity, expressed as Kd, was 3.62 nM and the “log(KD (M))” value was -8.44.

B21: Trastuzumab HCDR3 variant ARWYGAYYHMDY (Fab, V domains shown)
VH: EVQLVESGGGLVQPGGSLRLSCAASGFNIKDTYIHWVRQAPGKGLEWVARIYPTNGYTRYADSVKGRFTISADTSKNTAYLQMNSLRAEDTAVYYCARWYGAYYHMDYWGQGTLVTVSS
VL: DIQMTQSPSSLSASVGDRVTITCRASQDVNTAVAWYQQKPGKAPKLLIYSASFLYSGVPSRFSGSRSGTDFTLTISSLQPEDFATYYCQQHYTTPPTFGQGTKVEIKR
As for B21, the Kd was determined as 5.59 nM and the “log(KD (M))” value was -8.25.

B22: Trastuzumab HCDR3 variant ARWSYGYYNFDY (Fab, V domains shown)
VH: EVQLVESGGGLVQPGGSLRLSCAASGFNIKDTYIHWVRQAPGKGLEWVARIYPTNGYTRYADSVKGRFTISADTSKNTAYLQMNSLRAEDTAVYYCARWSYGYYNFDYWGQGTLVTVSS
VL: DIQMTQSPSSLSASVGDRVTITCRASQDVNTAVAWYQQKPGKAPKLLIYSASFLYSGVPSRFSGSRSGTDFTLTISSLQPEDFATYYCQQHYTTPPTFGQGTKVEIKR
For the molecule B22, binding was put at a Kd of 1.98 nM and the “log(KD (M))” value was -8.7.

B23: Trastuzumab HCDR3 variant ARWYGYYYYFDV (Fab, V domains shown)
VH: EVQLVESGGGLVQPGGSLRLSCAASGFNIKDTYIHWVRQAPGKGLEWVARIYPTNGYTRYADSVKGRFTISADTSKNTAYLQMNSLRAEDTAVYYCARWYGYYYYFDVWGQGTLVTVSS
VL: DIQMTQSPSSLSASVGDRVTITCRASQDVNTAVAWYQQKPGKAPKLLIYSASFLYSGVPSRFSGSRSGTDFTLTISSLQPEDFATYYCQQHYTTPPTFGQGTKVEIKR
With B23, the dissociation constant Kd came to 11.2 nM and the “log(KD (M))” value was -7.95.

B24: Trastuzumab HCDR3 variant ARWGYYYYAMDY (Fab, V domains shown)
VH: EVQLVESGGGLVQPGGSLRLSCAASGFNIKDTYIHWVRQAPGKGLEWVARIYPTNGYTRYADSVKGRFTISADTSKNTAYLQMNSLRAEDTAVYYCARWGYYYYAMDYWGQGTLVTVSS
VL: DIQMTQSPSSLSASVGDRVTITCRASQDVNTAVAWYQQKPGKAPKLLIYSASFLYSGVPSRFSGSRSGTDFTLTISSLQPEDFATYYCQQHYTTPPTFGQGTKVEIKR
On to B24, for which the equilibrium dissociation constant (Kd) was 22.6 nM and the “log(KD (M))” value is -7.65.

B25: Trastuzumab HCDR3 variant ARYFGGSYAYVY (Fab, V domains shown)
VH: EVQLVESGGGLVQPGGSLRLSCAASGFNIKDTYIHWVRQAPGKGLEWVARIYPTNGYTRYADSVKGRFTISADTSKNTAYLQMNSLRAEDTAVYYCARYFGGSYAYVYWGQGTLVTVSS
VL: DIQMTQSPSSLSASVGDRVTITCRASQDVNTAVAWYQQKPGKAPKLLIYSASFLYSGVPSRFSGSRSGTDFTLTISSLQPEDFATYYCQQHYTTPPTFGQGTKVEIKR
In the case of B25, the dissociation constant (Kd) stood at 11.2 nM and the “log(KD (M))” value was -7.95.

B26: Trastuzumab HCDR3 variant ARWLAYWYAMDY (Fab, V domains shown)
VH: EVQLVESGGGLVQPGGSLRLSCAASGFNIKDTYIHWVRQAPGKGLEWVARIYPTNGYTRYADSVKGRFTISADTSKNTAYLQMNSLRAEDTAVYYCARWLAYWYAMDYWGQGTLVTVSS
VL: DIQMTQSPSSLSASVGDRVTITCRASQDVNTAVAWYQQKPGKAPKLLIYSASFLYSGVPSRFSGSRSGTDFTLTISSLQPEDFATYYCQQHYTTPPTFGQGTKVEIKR
In the case of B26, the Kd stood at 3.55 nM and the “log(KD (M))” value was -8.45.

B27: Trastuzumab HCDR3 variant ARYGGFYYYFDY (Fab, V domains shown)
VH: EVQLVESGGGLVQPGGSLRLSCAASGFNIKDTYIHWVRQAPGKGLEWVARIYPTNGYTRYADSVKGRFTISADTSKNTAYLQMNSLRAEDTAVYYCARYGGFYYYFDYWGQGTLVTVSS
VL: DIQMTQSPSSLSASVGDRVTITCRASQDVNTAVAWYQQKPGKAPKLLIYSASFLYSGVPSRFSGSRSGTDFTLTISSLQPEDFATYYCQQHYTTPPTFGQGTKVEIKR
Regarding B27, binding was characterised by a dissociation constant (Kd) of 6.17 nM and the “log(KD (M))” value is -8.21.

B28: Trastuzumab HCDR3 variant ARWSSGYYYMDY (Fab, V domains shown)
VH: EVQLVESGGGLVQPGGSLRLSCAASGFNIKDTYIHWVRQAPGKGLEWVARIYPTNGYTRYADSVKGRFTISADTSKNTAYLQMNSLRAEDTAVYYCARWSSGYYYMDYWGQGTLVTVSS
VL: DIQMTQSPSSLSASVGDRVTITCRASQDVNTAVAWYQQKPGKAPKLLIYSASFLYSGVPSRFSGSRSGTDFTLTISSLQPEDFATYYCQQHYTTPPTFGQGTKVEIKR
As for B28, the Kd worked out at 12 nM and the “log(KD (M))” value was -7.92.

B29: Trastuzumab HCDR3 variant ARYGGGYYYYDY (Fab, V domains shown)
VH: EVQLVESGGGLVQPGGSLRLSCAASGFNIKDTYIHWVRQAPGKGLEWVARIYPTNGYTRYADSVKGRFTISADTSKNTAYLQMNSLRAEDTAVYYCARYGGGYYYYDYWGQGTLVTVSS
VL: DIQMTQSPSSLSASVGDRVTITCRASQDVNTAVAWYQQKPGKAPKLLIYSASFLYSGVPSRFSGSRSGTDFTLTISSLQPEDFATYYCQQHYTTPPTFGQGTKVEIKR
Regarding B29, the Kd is 9.11 nM and the “log(KD (M))” value was -8.04.
